Test results taken from patent US20160052994A1.
Each block holds one substance with its values, some of them ahead of it.

Columns and labels:
[1] = biological target: Type I collagen (Nitta Gelatin Inc., type I-A: porcine origin) (porcine); assay: solid-phase binding assay on coated type I collagen, detection with anti-FLAG antibody M2
[2] = biological target: Type I collagen (Nitta Gelatin Inc., type I-A: porcine origin) (porcine); assay: solid-phase binding assay on coated type I collagen, detection with anti-laminin α5 antibody 5D6
[3] = biological target: Gelatin (Sigma, G1890-100G: porcine origin) (porcine); assay: solid-phase binding assay on coated gelatin, detection with anti-laminin α5 antibody 5D6

concentration at which the binding activity reached saturation [2]: 10 nM | fold binding activity against the forms with a single CBD (monovalent forms) [2]: 10 fold | fold binding activity against the monovalent forms [3]: 3 fold
Substance: CBD-fused laminin 511E8 fragment CBD-E8(αβγ)

fold binding activity against the form with a single CBD (221β) [1]: > 10 fold
Substance: CBD-fused laminin 221E8 fragment 221βγ (from UniProt P24043 1900-2722)

concentration at which the binding activity reached saturation [2]: 10 nM | fold binding activity against the forms with a single CBD (monovalent forms) [2]: 10 fold | fold binding activity against the monovalent forms [3]: 3 fold
Substance: CBD-fused laminin 511E8 fragment CBD-E8(βγ) (from UniProt O15230 2534-3327)

fold binding activity against the form with a single CBD (411β) [1]: > 10 fold
Substance: CBD-fused laminin 411E8 fragment 411βγ (from UniProt Q16363 629-1449)

Further lines, the substance ahead of its results:

Substance: CBD-fused laminin 111E8 fragment 111βγ (from UniProt P25391 1878-2700)
fold binding activity against the form with a single CBD (111β) [1]: > 10 fold

Substance: CBD-fused laminin 211E8 fragment 211βγ (from UniProt P24043 1900-2722)
fold binding activity against the form with a single CBD (211β) [1]: > 10 fold

Substance: CBD-fused laminin 311E8 fragment 311βγ (from UniProt Q16787 579-1364)
fold binding activity against the form with a single CBD (311β) [1]: > 10 fold

Substance: CBD-fused laminin 321E8 fragment 321βγ (from UniProt Q16787 579-1364)
fold binding activity against the form with a single CBD (321β) [1]: > 10 fold

Substance: CBD-fused laminin 121E8 fragment 121βγ (from UniProt P25391 1878-2700)
fold binding activity against the form with a single CBD (121β) [1]: > 10 fold

Substance: CBD-fused laminin 521E8 fragment 521βγ (from UniProt O15230 2534-3327)
fold binding activity against the form with a single CBD (521β) [1]: > 10 fold

Substance: CBD-fused laminin 421E8 fragment 421βγ (from UniProt Q16363 629-1449)
fold binding activity against the form with a single CBD (421β) [1]: > 10 fold
